Experimental data as given in US20030129724A1 (Harvard, published 2003).

B1: Recombinant FLAG-epitope tagged HDAC4 (enzyme, not shown: small tags and cut ends)
chain: MSSQSHPDGLSGRDQPVELLNPARVNHMPSTVDVATALPLQVAPSAVPMDLRLDHQFSLPVAEPALREQQLQQELLALKQKQQIQRQILIAEFQRQHEQLSRQHEAQLHEHIKQQQEMLAMKHQQELLEHQRKLERHRQEQELEKQHREQKLQQLKNKEKGKESAVASTEVKMKLQEFVLNKKKALAHRNLNHCISSDPRYWYGKTQHSSLDQSSPPQSGVSTSYNHPVLGMYDAKDDFPLRKTASEPNLKLRSRLKQKVAERRSSPLLRRKDGPVVTALKKRPLDVTDSACSSAPGSGPSSPNNSSGSVSAENGIAPAVPSIPAETSLAHRLVAREGSAAPLPLYTSPSLPNITLGLPATGPSAGTAGQQDTERLTLPALQQRLSLFPGTHLTPYLSTSPLERDGGAAHSPLLQHMVLLEQPPAQAPLVTGLGALPLHAQSLVGADRVSPSIHKLRQHRPLGRTQSAPLPQNAQALQHLVIQQQHQQFLEKHKQQFQQQQLQMNKIIPKPSEPARQPESHPEETEEELREHQALLDEPYLDRLPGQKEAHAQAGVQVKQEPIESDEEEAEPPREVEPGQRQPSEQELLFRQQALLLEQQRIHQLRNYQASMEAAGIPVSFGGHRPLSRAQSSPASATFPVSVQEPPTKPRFTTGLVYDTLMLKHQCTCGSSSSHPEHAGRIQSIWSRLQETGLRGKCECIRGRKATLEELQTVHSEAHTLLYGTNPLNRQKLDSKKLLGSLASVFVRLPCGGVGVDSDTIWNEVHSAGAARLAVGCVVELVFKVATGELKNGFAVVRPPGHHAEESTPMGFCYFNSVAVAAKLLQQRLSVSKILIVDWDVHHGNGTQQAFYSDPSVLYMSLHRYDDGNFFPGSGAPDEVGTGPGVGFNVNMAFTGGLDPPMGDAEYLAAFRTVVMPIASEFAPDVVLVSSGFDAVEGHPTPLGGYNLSARCFGYLTKQLMGLAGGRIVLALEGGHDLTAICDASEACVSALLGNELDPLPEKVLQQRPNANAVRSMEKVMEIHSKYWRCLQRTTSTAGRSLIEAQTCENEEAETVTAMASLSVGVKPAEKRPDEEPMEEEPPL
notes: Complete HDAC4 ORF with C-terminal FLAG tag in pBJ5, transiently expressed in TAg Jurkat cells (untreated) and immunoprecipitated with anti-FLAG agarose; also called HDAC4-FLAG; HDAC4-F
B2: MTA (other, UniProt Q13330 1-715, looked up)
chain: MAANMYRVGDYVYFENSSSNPYLIRRIEELNKTANGNVEAKVVCFYRRRDISSTLIALADKHATLSVCYKAGPGADNGEEGEIEEEMENPEMVDLPEKLKHQLRHRELFLSRQLESLPATHIRGKCSVTLLNETESLKSYLEREDFFFYSLVYDPQQKTLLADKGEIRVGNRYQADITDLLKEGEEDGRDQSRLETQVWEAHNPLTDKQIDQFLVVARSVGTFARALDCSSSVRQPSLHMSAAAASRDITLFHAMDTLHKNIYDISKAISALVPQGGPVLCRDEMEEWSASEANLFEEALEKYGKDFTDIQQDFLPWKSLTSIIEYYYMWKTTDRYVQQKRLKAAEAESKLKQVYIPNYNKPNPNQISVNNVKAGVVNGTGAPGQSPGAGRACESCYTTQSYQWYSWGPPNMQCRLCASCWTYWKKYGGLKMPTRLDGERPGPNRSNMSPHGLPARSSGSPKFAMKTRQAFYLHTTKLTRIARRLCREILRPWHAARHPYLPINSAAIKAECTARLPEASQSPLVLKQAVRKPLEAVLRYLETHPRPPKPDPVKSVSSVLSSLTPAKVAPVINNGSPTILGKRSYEQHNGVDGNMKKRLLMPSRGLANHGQARHMGPSRNLLLNGKSYPTKVRLIRGGSLPPVKRRRMNWIDAPDDVFYMATEETRKIRKLLSSSETKRAARRPYKPIALRQSQALPPRPPPPAPVNDEPIVIED
notes: also called metastasis-associated factors (MTA)

Columns and labels:
[1] = target: T1, CHD4 (UniProt Q14839 1-1912, limits assumed); test: anti-FLAG co-immunoprecipitation from TAg Jurkat cells, Western blot
T1 construct: Endogenous protein detected by Western blot in immunoprecipitates; also called CHD chromodomain protein

[2] = target: T2, HDAC3 from calyculin A-treated cells, O15379
T2 chain: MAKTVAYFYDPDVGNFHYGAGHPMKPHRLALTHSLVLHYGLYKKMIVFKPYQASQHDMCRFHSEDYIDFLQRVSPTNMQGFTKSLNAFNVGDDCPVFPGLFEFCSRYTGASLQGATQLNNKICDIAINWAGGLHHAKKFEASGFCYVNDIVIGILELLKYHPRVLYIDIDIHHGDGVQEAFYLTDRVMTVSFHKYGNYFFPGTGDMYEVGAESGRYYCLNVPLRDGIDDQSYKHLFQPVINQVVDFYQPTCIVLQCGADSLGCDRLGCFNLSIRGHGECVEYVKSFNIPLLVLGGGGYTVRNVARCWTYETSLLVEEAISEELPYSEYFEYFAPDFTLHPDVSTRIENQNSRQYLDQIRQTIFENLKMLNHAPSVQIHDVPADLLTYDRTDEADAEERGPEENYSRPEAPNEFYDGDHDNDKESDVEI

[3] = target: T3, mSin3A (UniProt Q96ST3 1-1273); test: anti-FLAG co-immunoprecipitation from TAg Jurkat cells, Western blot; an unexplained band of lower molecular weight was seen in the mSin3A blot
T3 construct: Endogenous protein detected by Western blot in immunoprecipitates; also called co-repressor mSin3A
T3 sequence (looked up): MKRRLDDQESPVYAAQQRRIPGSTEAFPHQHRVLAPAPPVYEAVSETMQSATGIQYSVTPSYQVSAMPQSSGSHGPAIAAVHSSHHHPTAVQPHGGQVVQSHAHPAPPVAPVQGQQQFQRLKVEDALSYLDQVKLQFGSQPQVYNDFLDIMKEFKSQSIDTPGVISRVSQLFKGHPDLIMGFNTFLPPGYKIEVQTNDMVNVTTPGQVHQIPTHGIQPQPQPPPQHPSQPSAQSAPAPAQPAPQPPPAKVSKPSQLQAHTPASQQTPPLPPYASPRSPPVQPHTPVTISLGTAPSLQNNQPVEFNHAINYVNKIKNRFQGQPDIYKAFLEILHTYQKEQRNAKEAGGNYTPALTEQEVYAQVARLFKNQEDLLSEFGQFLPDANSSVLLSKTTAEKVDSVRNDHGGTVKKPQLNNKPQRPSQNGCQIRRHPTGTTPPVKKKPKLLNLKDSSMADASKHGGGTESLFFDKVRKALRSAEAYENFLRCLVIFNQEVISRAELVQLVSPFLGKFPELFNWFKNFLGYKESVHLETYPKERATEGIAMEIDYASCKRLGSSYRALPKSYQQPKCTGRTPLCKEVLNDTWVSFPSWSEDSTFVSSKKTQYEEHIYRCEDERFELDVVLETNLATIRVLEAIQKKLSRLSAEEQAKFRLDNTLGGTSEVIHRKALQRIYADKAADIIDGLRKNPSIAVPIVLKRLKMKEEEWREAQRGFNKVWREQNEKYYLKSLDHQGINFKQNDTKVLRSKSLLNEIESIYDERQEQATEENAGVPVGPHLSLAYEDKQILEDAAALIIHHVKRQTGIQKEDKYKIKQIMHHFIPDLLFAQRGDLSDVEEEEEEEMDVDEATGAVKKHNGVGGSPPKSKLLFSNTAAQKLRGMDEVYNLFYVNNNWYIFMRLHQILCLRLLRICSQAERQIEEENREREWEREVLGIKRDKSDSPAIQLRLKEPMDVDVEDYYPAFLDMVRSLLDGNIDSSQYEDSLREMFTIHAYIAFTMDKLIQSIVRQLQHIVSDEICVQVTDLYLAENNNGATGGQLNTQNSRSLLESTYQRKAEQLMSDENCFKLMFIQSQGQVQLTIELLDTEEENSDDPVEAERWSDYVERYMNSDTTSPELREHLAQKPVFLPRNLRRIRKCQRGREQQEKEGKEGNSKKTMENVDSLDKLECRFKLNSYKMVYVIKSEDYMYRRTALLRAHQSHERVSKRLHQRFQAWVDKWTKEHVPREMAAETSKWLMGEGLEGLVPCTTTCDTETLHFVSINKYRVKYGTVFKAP
Excerpt: Immunoprecipitates were probed with -CHD4, -mSin3A, -MTA, -RbAp48, -HDAC1, and -HDAC3 antibodies (FIG. 5B).

[4] = target: T4, Recombinant FLAG-epitope tagged HDAC6 (human, UniProt Q9UBN7 1-1215); test: anti-FLAG co-immunoprecipitation from TAg Jurkat cells, Western blot
T4 construct: Full length ORF with C-terminal FLAG tag in pBJ5, expressed in TAg Jurkat cells; also called HDAC6-FLAG; HD6
T4 sequence: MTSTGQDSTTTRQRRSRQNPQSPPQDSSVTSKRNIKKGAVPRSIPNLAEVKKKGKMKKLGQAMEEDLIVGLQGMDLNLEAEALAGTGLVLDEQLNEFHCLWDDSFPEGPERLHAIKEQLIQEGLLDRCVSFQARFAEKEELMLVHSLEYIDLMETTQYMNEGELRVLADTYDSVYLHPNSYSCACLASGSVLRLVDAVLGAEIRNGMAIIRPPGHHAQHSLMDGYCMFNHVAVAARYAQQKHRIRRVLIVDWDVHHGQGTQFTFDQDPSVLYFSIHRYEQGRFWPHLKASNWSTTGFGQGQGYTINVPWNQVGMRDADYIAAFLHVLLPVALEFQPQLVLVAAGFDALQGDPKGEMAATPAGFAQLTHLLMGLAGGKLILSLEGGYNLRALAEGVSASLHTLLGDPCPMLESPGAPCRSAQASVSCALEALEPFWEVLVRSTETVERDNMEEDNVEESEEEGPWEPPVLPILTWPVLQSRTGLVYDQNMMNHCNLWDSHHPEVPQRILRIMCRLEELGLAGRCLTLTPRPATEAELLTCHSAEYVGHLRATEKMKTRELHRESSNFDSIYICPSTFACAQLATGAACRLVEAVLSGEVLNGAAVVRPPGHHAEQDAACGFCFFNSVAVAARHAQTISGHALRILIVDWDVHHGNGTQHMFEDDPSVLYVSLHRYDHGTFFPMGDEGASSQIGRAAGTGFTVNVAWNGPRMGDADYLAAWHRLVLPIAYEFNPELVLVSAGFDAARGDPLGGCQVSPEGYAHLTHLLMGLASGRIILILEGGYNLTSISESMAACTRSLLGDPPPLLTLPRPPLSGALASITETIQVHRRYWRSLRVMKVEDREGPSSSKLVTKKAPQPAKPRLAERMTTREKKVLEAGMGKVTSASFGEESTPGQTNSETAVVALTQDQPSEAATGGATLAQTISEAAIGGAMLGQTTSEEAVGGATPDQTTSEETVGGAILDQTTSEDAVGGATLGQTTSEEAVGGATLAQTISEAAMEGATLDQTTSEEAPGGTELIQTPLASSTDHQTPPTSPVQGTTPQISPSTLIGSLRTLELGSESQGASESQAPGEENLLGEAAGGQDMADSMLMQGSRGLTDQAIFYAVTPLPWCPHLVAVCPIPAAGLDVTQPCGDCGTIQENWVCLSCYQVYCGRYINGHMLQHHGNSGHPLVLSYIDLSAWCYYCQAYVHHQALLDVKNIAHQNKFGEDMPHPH

[5] = target: B1; test: as above

T1 sequence (Q14839 whole entry): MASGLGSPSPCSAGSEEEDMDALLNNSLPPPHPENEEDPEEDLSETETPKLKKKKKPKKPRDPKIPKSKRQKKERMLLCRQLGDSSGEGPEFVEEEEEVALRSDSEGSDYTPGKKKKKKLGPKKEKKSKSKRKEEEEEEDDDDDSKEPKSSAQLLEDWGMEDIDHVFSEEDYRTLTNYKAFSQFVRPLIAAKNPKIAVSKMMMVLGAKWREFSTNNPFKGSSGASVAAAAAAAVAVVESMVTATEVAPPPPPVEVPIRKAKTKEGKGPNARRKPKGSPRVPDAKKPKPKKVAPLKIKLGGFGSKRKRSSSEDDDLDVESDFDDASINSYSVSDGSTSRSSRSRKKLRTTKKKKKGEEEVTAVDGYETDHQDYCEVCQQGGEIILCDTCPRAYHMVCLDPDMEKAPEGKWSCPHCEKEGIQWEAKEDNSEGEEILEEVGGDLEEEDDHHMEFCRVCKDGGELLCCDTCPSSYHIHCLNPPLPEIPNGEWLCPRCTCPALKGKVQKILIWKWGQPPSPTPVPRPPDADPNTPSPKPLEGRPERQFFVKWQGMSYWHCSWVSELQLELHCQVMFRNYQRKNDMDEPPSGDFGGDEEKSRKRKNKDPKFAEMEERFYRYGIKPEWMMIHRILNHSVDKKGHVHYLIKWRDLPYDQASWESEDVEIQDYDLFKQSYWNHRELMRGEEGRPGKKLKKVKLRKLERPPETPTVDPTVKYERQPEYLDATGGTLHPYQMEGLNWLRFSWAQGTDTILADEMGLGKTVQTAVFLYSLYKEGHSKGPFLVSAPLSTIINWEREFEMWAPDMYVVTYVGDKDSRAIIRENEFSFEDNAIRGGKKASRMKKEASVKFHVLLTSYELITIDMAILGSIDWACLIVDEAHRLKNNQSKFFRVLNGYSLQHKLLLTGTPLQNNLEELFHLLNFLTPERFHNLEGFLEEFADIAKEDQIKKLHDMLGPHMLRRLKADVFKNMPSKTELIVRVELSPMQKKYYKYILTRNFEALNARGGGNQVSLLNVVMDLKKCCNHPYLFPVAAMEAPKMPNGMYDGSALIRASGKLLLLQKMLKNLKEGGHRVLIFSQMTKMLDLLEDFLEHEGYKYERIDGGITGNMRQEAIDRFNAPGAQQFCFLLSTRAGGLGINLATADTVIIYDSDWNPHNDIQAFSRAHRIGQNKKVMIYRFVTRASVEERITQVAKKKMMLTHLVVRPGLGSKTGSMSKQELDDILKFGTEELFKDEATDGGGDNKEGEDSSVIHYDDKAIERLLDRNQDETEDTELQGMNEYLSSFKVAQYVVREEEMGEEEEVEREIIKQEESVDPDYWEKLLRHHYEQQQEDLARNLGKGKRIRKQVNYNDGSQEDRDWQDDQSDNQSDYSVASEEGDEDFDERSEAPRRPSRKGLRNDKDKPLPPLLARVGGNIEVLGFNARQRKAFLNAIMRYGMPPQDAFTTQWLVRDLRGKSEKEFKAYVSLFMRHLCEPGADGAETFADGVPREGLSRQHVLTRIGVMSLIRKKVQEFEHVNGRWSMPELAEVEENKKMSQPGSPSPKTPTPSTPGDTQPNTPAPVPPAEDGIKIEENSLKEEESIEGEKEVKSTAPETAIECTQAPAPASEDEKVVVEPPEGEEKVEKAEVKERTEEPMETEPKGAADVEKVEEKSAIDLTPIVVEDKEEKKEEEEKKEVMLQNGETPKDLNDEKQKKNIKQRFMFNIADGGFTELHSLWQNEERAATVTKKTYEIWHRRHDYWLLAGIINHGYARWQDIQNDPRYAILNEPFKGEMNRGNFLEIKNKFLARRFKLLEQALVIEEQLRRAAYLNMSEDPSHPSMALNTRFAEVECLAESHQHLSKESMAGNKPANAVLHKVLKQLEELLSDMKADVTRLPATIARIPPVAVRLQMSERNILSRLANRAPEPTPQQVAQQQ

Binder	binding result [1]	immunoprecipitated HDAC activity (release of 3H-acetic acid) [2]	binding result [3]	binding result [4]	binding result [5]
B1	no binding	dramatic reduction in immunoprecipitated HDAC activity	no binding	–	–
B2	–	–	–	no binding	no binding
